50 molecules from patent US20250026849A1 (ARCELLX, published 2025) can be followed below.

Residue numbers refer to the chain shown, from its start.

First the molecules themselves.
T1: CD123 (Homo sapiens (Human), UniProt P26951 19-305, limits assumed)
T1 construct: The CD123 construct used in the ELISA is not described; also called CD123-Signal
T1 sequence: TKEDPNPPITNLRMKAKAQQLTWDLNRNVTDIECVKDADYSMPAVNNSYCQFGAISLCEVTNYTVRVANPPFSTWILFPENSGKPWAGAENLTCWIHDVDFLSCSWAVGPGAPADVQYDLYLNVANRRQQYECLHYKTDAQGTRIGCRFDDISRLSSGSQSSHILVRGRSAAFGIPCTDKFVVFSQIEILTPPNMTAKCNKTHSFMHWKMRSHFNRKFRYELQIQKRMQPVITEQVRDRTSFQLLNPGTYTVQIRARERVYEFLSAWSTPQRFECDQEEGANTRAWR

B1: D domain of SEQ ID NO: 500 (designed binder)
chain: MGSWEFFKEVLAEIKYDLEALGGSEAELAWFETDIAGFEIDLQVYKGKGNPEVEALRKEAAAIRDELQAYRHN
B2: D domain of SEQ ID NO: 501 (designed binder)
chain: B1 chain with E5V, V10D, E13T, Y16N, T33M, D34M, G37D, I40A, V44Y
B3: D domain of SEQ ID NO: 520 (designed binder)
chain: B1 chain with E5M, F6E, V10E, D17I, T33Q, D34S, G37D, I40Y, V44D
B4: D domain of SEQ ID NO: 519 (designed binder)
chain: MGSWSFFKDDLAEIKYFLEALGGSEAELAMFEQTIAEFEYDLQDYKGKGNPEVEALRKEAAAIRDELQAYRHN
B5: D domain of SEQ ID NO: 475 (designed binder)
chain: MGSWGHFKQDLAWIKDTLEALGGSEAELAFFEDDIAMFEMELQDYKGKGNPEVEALRKEAAAIRDELQAYRHN
B6: D domain of SEQ ID NO: 509 (designed binder)
chain: B5 chain with G5S, H6W, W13D, D16I, T17Q, F30W, D33W, M37E, M40F
B7: D domain of SEQ ID NO: 492 (designed binder)
chain: B5 chain with G5I, H6F, W13E, D16L, T17N, F30W, M37W, M40S, E41H
B8: D domain of SEQ ID NO: 508 (designed binder)
chain: MGSWSWFKEDLAEIKMELEALGGSEAELAYFEWYIAEFEFQLQHYKGKGNPEVEALRKEAAAIRDELQAYRHN
B9: D domain of SEQ ID NO: 511 (designed binder)
chain: B8 chain with E13S, M16A, E17V, Y30F, W33S, Y34D, F40Q, Q41E, H44Y
B10: D domain of SEQ ID NO: 512 (designed binder)
chain: MGSWWEFKEDLAEIKWFLEALGGSEAELAWFEHDIAKFEFELQYYKGKGNPEVEALRKEAAAIRDELQAYRHN
B11: D domain of SEQ ID NO: 514 (designed binder)
chain: B10 chain with W5N, E9D, E13M, W16M, F17T, K37E, F40D, E41D, Y44W
B12: D domain of SEQ ID NO: 518 (designed binder)
chain: MGSWQYFKDDLAEIKMVLEALGGSEAELAWFEADIAMFEDDLQIYKGKGNPEVEALRKEAAAIRDELQAYRHN
B13: D domain of SEQ ID NO: 513 (designed binder)
chain: B10 chain with W5E, E6W, E9S, E13S, F17E, K37E, F40E, E41D, Y44W
B14: D domain of SEQ ID NO: 516 (designed binder)
chain: B12 chain with Q5S, Y6D, V17I, W30Y, A33N, M37W, I44E
B15: D domain of SEQ ID NO: 517 (designed binder)
chain: B12 chain with Q5S, Y6M, M16A, V17S, A33D, M37W, I44H
B16: D domain of SEQ ID NO: 471 (designed binder)
chain: MGSWYEFKDDLAEIKEWLEALGGSEAELAFFELDIADFEWLLQLYKGKGNPEVEALRKEAAAIRDELQAYRHN
B17: D domain of SEQ ID NO: 502 (designed binder)
chain: B10 chain with W5E, W16V, F17W, H33M, D34G, K37D, F40D, E41G, Y44F
B18: D domain of SEQ ID NO: 474 (designed binder)
chain: B16 chain with Y5I, E6V, E13D, E16R, F30M, L33D, D34E, L41Q, L44D
B19: D domain of SEQ ID NO: 473 (designed binder)
chain: B5 chain with G5I, H6L, Q9D, D16E, D34N, M37D, M40E, E41Q, D44G
B20: D domain of SEQ ID NO: 484 (designed binder)
chain: MGSWYWFKQDLAHIKSMLEALGGSEAELAWFEEDIADFESELQEYKGKGNPEVEALRKEAAAIRDELQAYRHN
B21: D domain of SEQ ID NO: 515 (designed binder)
chain: B12 chain with Q5T, Y6F, M16W, V17M, A33S, M37Y, D41E, I44W
B22: D domain of SEQ ID NO: 488 (designed binder)
chain: B20 chain with Y5Q, W6T, Q9D, D10E, S16W, M17E, E33W, D37N, S40E
B23: D domain of SEQ ID NO: 489 (designed binder)
chain: B20 chain with Q9E, D10E, H13F, S16W, M17E, W30L, D37Y, S40E, E41M
B24: D domain of SEQ ID NO: 485 (designed binder)
chain: B20 chain with Y5T, W6F, Q9W, H13D, S16A, M17N, I35L, D37G, S40A
B25: D domain of SEQ ID NO: 490 (designed binder)
chain: MGSWNSFKDELAEIKAELEALGGSEAELAFFEEDIAWFEEHLQQYKGKGNPEVEALRKEAAAIRDELQAYRHN
B26: D domain of SEQ ID NO: 491 (designed binder)
chain: B25 chain with N5D, S6L, D9W, A16L, E17G, F30E, E33Y, H41D, Q44D
B27: D domain of SEQ ID NO: 498 (designed binder)
chain: MGSWYVFKDELAEIKQFLEALGGSEAELAWFEDDIAEFETQLQHYKGKGNPEVEALRKEAAAIRDELQAYRHN
B28: D domain of SEQ ID NO: 482 (designed binder)
chain: MGSWTYFKDDLADIKQWLEALGGSEAELAFFEIEIAEFEEELQEYKGKGNPEVEALRKEAAAIRDELQAYRHN
B29: D domain of SEQ ID NO: 494 (designed binder)
chain: B28 chain with T5V, Y6T, D10E, Q16D, W17F, I33V, E34D, E40A, E44F
B30: D domain of SEQ ID NO: 481 (designed binder)
chain: B4 chain with S5T, D9N, Y16D, F17W, M30D, Q33W, T34D, D41S, D44E
B31: D domain of SEQ ID NO: 495 (designed binder)
chain: MGSWVYFKDELADIKDFLEALGGSEAELAEFEEDIATFEYDLQWYKGKGNPEVEALRKEAAAIRDELQAYRHN
B32: D domain of SEQ ID NO: 479 (designed binder)
chain: B28 chain with Y6F, D9E, D13G, Q16W, W17E, F30W, I33D, E37L
B33: D domain of SEQ ID NO: 483 (designed binder)
chain: B28 chain with Y6V, D9Y, Q16W, F30D, I33E
B34: D domain of SEQ ID NO: 480 (designed binder)
chain: B28 chain with T5V, Y6F, Q16D, W17E, E34A, E37L, E40W
B35: D domain of SEQ ID NO: 486 (designed binder)
chain: MGSWSFFKEELANIQVYLEALGGSEAELAWFEEDIADFEEDLQHYKGKGNPEVEALRKEAAAIRDELQAYRHN
B36: D domain of SEQ ID NO: 487 (designed binder)
chain: B31 chain with V5E, Y6F, D9Y, F17E, E30W, Y40E, D41W, W44G
B37: D domain of SEQ ID NO: 476 (designed binder)
chain: MGSWGYFKDDLAWIKGELEALGGSEAELAEFEWFIAVFEEDLQVYKGKGNPEVEALRKEAAAIRDELQAYRHN
B38: D domain of SEQ ID NO: 499 (designed binder)
chain: MGSWIFFKEQLAIIKWELEALGGSEAELAWFEDDIAAFEDDLQFYKGQGNPEVEALRKEAAAIRDELQAYRHN
B39: D domain of SEQ ID NO: 472 (designed binder)
chain: MGSWQWFKDDLAYIKETLEALGGSEAELALFEDMIADFEFELQWYKGKGNPEVEALRKEAAAIRDELQAYRHN
B40: D domain of SEQ ID NO: 477 (designed binder)
chain: B37 chain with G5Y, Y6W, W13E, E17L, W33D, F34E, E40Q, D41E, V44E
B41: D domain of SEQ ID NO: 503 (designed binder)
chain: MGSWHWFKEDLANIKDWLEALGGSEAELAWFEDNIADFEGDLQVYKGKGNPEVEALRKEAAAIRDELQAYRHN
B42: D domain of SEQ ID NO: 504 (designed binder)
chain: B41 chain with H5F, N13F, D16E, W17D, N34G, D37F, G40W, V44D
B43: D domain of SEQ ID NO: 507 (designed binder)
chain: B10 chain with W5N, E6W, E13I, W16M, F17D, D34N, K37G, Y44G
B44: D domain of SEQ ID NO: 506 (designed binder)
chain: B41 chain with N13I, D16Q, W17D, W30T, D33Q, N34W, D37E, G40W, V44E
B45: D domain of SEQ ID NO: 505 (designed binder)
chain: B41 chain with H5Q, N13E, D16H, W17D, N34F, D37Q, G40F, V44W
B46: D domain of SEQ ID NO: 478 (designed binder)
chain: MGSWMFFKEDLADIKWALEALGGSEAELAFFEEEIALFEQHLQQYKGKGNPEVEALRKEAAAIRDELQAYRHN
B47: D domain of SEQ ID NO: 510 (designed binder)
chain: B41 chain with H5S, N13D, D16F, W17E, D33L, N34D, G40Q, D41A, V44Q
B48: D domain of SEQ ID NO: 493 (designed binder)
chain: MGSWHLFKWTLAEIKYELEALGGSEAELAWFEDDIATFEEELQWYKGKGNPEVEALRKEAAAIRDELQAYRHN
B49: D domain of SEQ ID NO: 496 (designed binder)
chain: B10 chain with W5E, E6T, E9Y, D10E, W16D, F17Y, H33D, K37E
B50: D domain of SEQ ID NO: 497 (designed binder)
chain: B27 chain with Y5N, V6T, D9Y, Q16H, W30M, E37M, T40W, Q41E, H44E

The target in this assay is T1, CD123. Kind of assay: ELISA. More on the design: unit not given here.
As to B1, the ELISA_avg is 8.2.
In turn, B2 gave an ELISA_avg of 3.1.
Next, B3: 5; B4: 10.1.
To B5 belongs 4.9.
Next, B6: 4; B7: 3.8; B8: 4.8.
With B9, the ELISA_avg was 6.9.
Molecule B10 showed an ELISA_avg of 5.1.
In the case of B11, the ELISA_avg stood at 3.5.
On to B12, for which the ELISA_avg stood at 3.6.
To B13 belongs 5.7; to B14, 4.7.
For B15, the ELISA_avg is 5.2.
B16 displayed an ELISA_avg of 3.8.
In the case of B17, the ELISA_avg turned out to be 4.3.
To B18 belongs 3.9.
Next, B19: 6; B20: 3.3.
To B21 belongs 3.3; to B22, 5.5.
B23 returned an ELISA_avg of 9.4.
B24 registered an ELISA_avg of 4.8.
Turning to B25, the ELISA_avg worked out at 3.3.
The molecule B26 registered an ELISA_avg of 3.4.
B27 showed an ELISA_avg of 9.9.
For the molecule B28, the ELISA_avg turned out to be 4.6.
Molecule B29 had an ELISA_avg of 7.6.
To B30 belongs 3.9; to B31, 4.6.
On to B32, for which the ELISA_avg was found to be 7.
Molecule B33 gave an ELISA_avg of 3.9.
Regarding B34, the ELISA_avg was determined as 8.8.
For the molecule B35, the ELISA_avg amounted to 3.8.
The molecule B36 displayed an ELISA_avg of 3.4.
For the molecule B37, the ELISA_avg came out at 4.5.
Regarding B38, the ELISA_avg was 15.
Turning to B39, the ELISA_avg stood at 6.3.
Next, B40: 10.4; B41: 3.3.
B42: the ELISA_avg is 13.7.
B43: the ELISA_avg came out at 3.1.
Next, B44: 5.5; B45: 3.8.
B46 came in with an ELISA_avg of 3.2.
Next, B47: 6.8; B48: 4; B49: 4.4.
Next, B50: 5.
